Experimental data as given in US20250042994A1 (HAINAN SIMCERE ZAIMING PHARMACEUTICAL, published 2025).

T1: human CD19 on Raji cells (human, UniProt P15391 20-556)
T1 construct: whole, on cells
T1 sequence (looked up): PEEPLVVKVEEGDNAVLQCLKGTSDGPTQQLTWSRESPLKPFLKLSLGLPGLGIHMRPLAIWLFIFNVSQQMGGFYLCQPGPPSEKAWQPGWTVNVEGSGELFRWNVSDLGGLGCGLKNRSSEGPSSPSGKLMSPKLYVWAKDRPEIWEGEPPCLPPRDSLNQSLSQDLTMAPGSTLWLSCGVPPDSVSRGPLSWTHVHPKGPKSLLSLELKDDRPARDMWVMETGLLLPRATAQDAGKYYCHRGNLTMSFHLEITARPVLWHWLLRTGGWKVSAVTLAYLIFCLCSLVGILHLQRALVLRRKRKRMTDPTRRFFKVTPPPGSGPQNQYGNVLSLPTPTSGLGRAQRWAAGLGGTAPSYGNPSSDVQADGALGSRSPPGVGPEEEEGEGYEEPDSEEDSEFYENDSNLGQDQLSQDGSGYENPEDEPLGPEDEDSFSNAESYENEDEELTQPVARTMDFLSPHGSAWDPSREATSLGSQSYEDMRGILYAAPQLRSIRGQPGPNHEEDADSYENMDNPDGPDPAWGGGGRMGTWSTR

T2: human CD19 on CHO-K1-human CD19 cells (human, UniProt P15391 20-556)
T2 construct: whole, on cells; also called CHO-K1-human CD19-2C8
T2 sequence (looked up): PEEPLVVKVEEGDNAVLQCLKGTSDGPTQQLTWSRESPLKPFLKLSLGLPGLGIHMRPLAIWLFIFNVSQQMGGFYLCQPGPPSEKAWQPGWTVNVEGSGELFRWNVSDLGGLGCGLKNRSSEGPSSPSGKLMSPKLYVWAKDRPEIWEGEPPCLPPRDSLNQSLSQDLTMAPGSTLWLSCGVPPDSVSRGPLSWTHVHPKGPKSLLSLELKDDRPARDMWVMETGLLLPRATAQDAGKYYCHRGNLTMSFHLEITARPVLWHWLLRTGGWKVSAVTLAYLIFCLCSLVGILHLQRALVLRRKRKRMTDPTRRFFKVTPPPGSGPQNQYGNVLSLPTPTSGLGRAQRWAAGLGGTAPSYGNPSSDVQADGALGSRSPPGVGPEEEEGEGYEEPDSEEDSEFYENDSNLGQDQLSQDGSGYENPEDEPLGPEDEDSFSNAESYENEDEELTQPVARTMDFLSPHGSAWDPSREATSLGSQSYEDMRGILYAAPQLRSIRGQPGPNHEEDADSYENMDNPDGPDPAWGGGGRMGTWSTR

T3: Human CD19-his protein (human, UniProt P15391 20-291)
T3 construct: bought protein; also called recombinant human CD19-His; CD19 full-length protein; not shown: His tag
T3 sequence (looked up): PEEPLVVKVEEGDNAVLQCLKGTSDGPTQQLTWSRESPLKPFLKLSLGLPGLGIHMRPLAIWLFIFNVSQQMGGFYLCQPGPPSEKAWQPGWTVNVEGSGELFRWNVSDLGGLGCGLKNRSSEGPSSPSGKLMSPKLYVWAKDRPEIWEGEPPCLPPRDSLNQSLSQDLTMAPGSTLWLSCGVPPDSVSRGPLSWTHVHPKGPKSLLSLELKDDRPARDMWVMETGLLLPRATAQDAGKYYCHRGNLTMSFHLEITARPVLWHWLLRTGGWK


What was measured:
[1] = biological target: T4, monkey CD19 on HEK293T-monkey CD19 cells (monkey); experiment: FACS on HEK293T-monkey CD19 cells
T4 construct: whole, on cells
Experimental: (§1) After the digestion was terminated, the cells were washed 2 times with a PBS buffer; and for suspension cell Raji, the supernatant of the medium was discarded by directly centrifugation, and the cell pellet was washed 2 times with PBS. After counting the cells in the previous step, the cell pellet was resuspended with [PBS+2% (w/w) BSA] blocking solution to 2×10⁶ cells/ml, and added to a 96-well FACS reaction plate at 50 μl/well, and then the sample to be tested was added at 50 μl/well, and incubated on ice for 2 h. The obtained mixture was centrifuged and washed 3 times with a PBS buffer. […] The obtained mixture was centrifuged and washed 5 times with a PBS buffer, and FACS (FACS Canto™, purchased from BD Company) was used for detection and result analysis. Data analysis was performed by software (FlowJo) to obtain the mean fluorescence intensity (MFI) of the cells. And then software (GraphPad Prism8) was used for analysis, data fitting, and EC50 value calculation. […] The same method was used to detect the binding of the chimeric antibodies to endogenous CD19-negative cells, MoLT4 cells (purchased from ATCC, CRL-1582), and CHO-K1 cells.
HEK293T-monkey CD19 cells were subjected to FACS detection and data analysis according to the method in example 5.2. […] The same method was used to detect binding of the chimeric antibodies to HEK293T cells.

human CD19 on Raji cells = biological target: T1, human CD19 on Raji cells; experiment: FACS on Raji cells
Excerpt: as §1, with “The desired cells were scale-up cultured in a T-75 cell culture flask to the logarithmic growth phase. For the adherent cell CHO-K1, the medium was aspirated, the cells were washed 2 times with a PBS buffer, and then digested with trypsin. After the” for “After the”

[2] = biological target: T2, human CD19 on CHO-K1-human CD19 cells; experiment: FACS on CHO-K1-human CD19 cells
Excerpt: as §1, with “The desired cells were scale-up cultured in a T-75 cell culture flask to the logarithmic growth phase. For the adherent cell CHO-K1, the medium was aspirated, the cells were washed 2 times with a PBS buffer, and then digested with trypsin. After the” for “After the”

Human CD19-his protein = biological target: T3, Human CD19-his protein; experiment: SPR Biacore, Ab captured on Protein A, CD19-His analyte
Experimental: A sample buffer and a running buffer were HBS-EP+ (10 mM HEPES, 150 mM NaCl, 3 mM EDTA and 0.05% surfactant P20) (GE Healthcare; BR-1006-69). The flow-through cell was set to 25° C. The sample block was set to 16° C. Both were pretreated with the running buffer. In each cycle, an antibody to be detected was first captured with a Protein A chip, and then a single concentration of CD19 antigen protein was injected. The binding and dissociation processes of the antibody and the antigen protein were recorded, and finally Glycine pH 1.5 (GE Healthcare; BR-1003-54) was used to complete chip regeneration. The binding was measured by injecting different concentrations of recombinant human CD19-His proteins in a solution for 240 s with a flow rate of 30 μl/min. The concentration started from 200 nM (see the detailed results for the actual concentration in the test) and was diluted at 1:1, making a total of 5 concentrations. The dissociation phase was monitored for up to 600 s and was triggered by switching from sample solution to running buffer. The surface was regenerated by washing with a 10 mM glycine solution (pH 1.5) for 30 s at a flow rate of 30 μl/min. Bulk refractive index difference was corrected by subtracting the response obtained from the goat anti-human Fc surface. Blank injection was also subtracted (=double reference). For calculation of apparent KD and other kinetic parameters, Langmuir 1:1 model was used.

Row | Binder | Maximum mean fluorescence intensity [1] | EC50 (human CD19 on Raji cells) [nM] | Maximum mean fluorescence intensity (human CD19 on Raji cells) | EC50 [2] [nM] | Maximum mean fluorescence intensity [2] | Kd (Human CD19-his protein) [nM] | koff (Human CD19-his protein) [s⁻¹] | kon (Human CD19-his protein) [M⁻¹ s⁻¹] | EC50 [1] [nM]
1 | F5.7.1 (antibody, human IgG1, V domains shown, human-murine chimeric antibody, human IgG1) VH: QVTLKESGPGILQPSQTLSLTCSFSGFSLTTFGMGVGWIRQPSGKGLEWLTHIWWDDDKYYNPALKSRLTISKDTSKNQVFLRIANVDTADTATYYCARVITTGVPYFDYWGQGTTLTVSS VL: ENVLTQSPAIMSASPGEKVTMTCRASSSVSSSYLYWYQQKSGASPKLWISSTSNLASGVPARFSGSGSGTSYSLTINSVEAEDAATYYCQQYSGYPWTFGGGTKLEIK | 938 | 1.13 | 28700 | 1.54 | 56200 |  |  |  | 
2 | F5.11.2 (antibody, human IgG1, V domains shown, human-murine chimeric antibody, human IgG1 constant) VH: EVQLVESGGDLVKPGGSLKLSCAASGFTFSSYGMSWVRQTPDKRLEWVATISHGGSYTHYPDSVKGRFTISRDNAKNTLYLQMNSLKSEDTAMYYCVRLPITTVEAPYFFDYWGQGTTLTVSS VL: DIQMTQTTSSLSASLGDRVTISCRASQDIRNYLNWYQQKPDGTVKLLIYYTSILHSGVPSRFSGSGSGTDYSLTINNLEQEDVATYFCQQGNTLYTFGGGTEVELR |  |  |  |  |  | 1.68 | 6.15e-05 | 36600 | 
3 | F3.23.10 (antibody, human IgG1, V domains shown, human-murine chimeric antibody, human IgG1 constant) VH: EFQLQQSGPELVKPGASVKISCKASDYSFTDYNMNWVKQSNGASLEWIGIINPNFGSTSYNQKFKGKATLTVDQSSSTAFMQLNSLTSEDSAVYYCARSEYYGSSGFAYWGQGTLVTVSA VL: DVVVTQTPLSLPVSFGDQVSISCRSSQSLVNSYGNTYLSWYLHKPGQSPQLLIYGISNRFSGVPDRFSGSGSGTDFTLKITTIKPEDLGMYYCLQGTHQPWTFGGGTKLEIK |  |  |  |  |  | 5.24 | 0.000186 | 35400 | 
4 | F3.23.10 (antibody, human IgG1, V domains shown, human-murine chimeric antibody, human IgG1) VH: EFQLQQSGPELVKPGASVKISCKASDYSFTDYNMNWVKQSNGASLEWIGIINPNFGSTSYNQKFKGKATLTVDQSSSTAFMQLNSLTSEDSAVYYCARSEYYGSSGFAYWGQGTLVTVSA VL: DVVVTQTPLSLPVSFGDQVSISCRSSQSLVNSYGNTYLSWYLHKPGQSPQLLIYGISNRFSGVPDRFSGSGSGTDFTLKITTIKPEDLGMYYCLQGTHQPWTFGGGTKLEIK | 77 | 4.77 | 14900 | 3.59 | 50400 |  |  |  | 
5 | F6.2.9 (antibody, human IgG1, V domains shown, human-murine chimeric antibody, human IgG1) VH: QVQLQQSGAELVKPGASVKISCKASGYAFSSYWMNWVKQRPGKGLEWIGQIYPGDGDTNYNGKFKGKATLTADKSSSTGYMQLSSLTSEDSAVYFCARSRITSVVDWYFDVWGTGTTVTVSS VL: QIVLSQSPAILSASPGEKVTMTCRASSSVSYMHWYQQKPGSSPKPWIYATSNLASGVPARFSGSGSGTSYSLTISRVEAEDAATYYCQQWSSNPPTFGAGTKLELK | 2130 | 0.98 | 21500 |  | 10300 |  |  |  | 86
6 | F4.180.1 (antibody, human IgG1, V domains shown, human-murine chimeric antibody, human IgG1) VH: EVQLQQSAPELVKPGASVKMSCKTSGYTFTENIIHWVKQTHGKSLEWIGGINPDNGGTSYHQKFKGRTTLTIDKSSSTAYMELRSLTSDDSAVFFCARQAPLYWYFDIWGAGTTVTVSS VL: DIVLTQSPASLAVSLGQRATISCRASESVDSYGNSLMHWFQQKPGQPPRLLIYRASNLESGIPARFSGSGSRTDFTLTITPVEADDVATYYCQQSNEDPWTFGGGTKLEIK | 94 | 0.96 | 23700 | 1.24 | 49600 |  |  |  | 

The remaining binders from weak to strong by EC50 (human CD19 on Raji cells), led by results:

Row | Maximum mean fluorescence intensity [1] | EC50 (human CD19 on Raji cells) [nM] | Maximum mean fluorescence intensity (human CD19 on Raji cells) | EC50 [2] [nM] | Maximum mean fluorescence intensity [2] | Kd (Human CD19-his protein) [nM] | koff (Human CD19-his protein) [s⁻¹] | kon (Human CD19-his protein) [M⁻¹ s⁻¹] | EC50 [1] [nM] | Binder
7 | 108 | 0.78 | 20000 | 0.84 | 48500 |  |  |  |  | F4.145.9 (antibody, human IgG1, V domains shown, human-murine chimeric antibody, human IgG1) VH: EVQLVESGGGLVKPGGSLKLSCAAAGFAFSSYDMSWVRQIPEKRLEWVAYISAGGGNTYFLDTVKGRFTISRDHAKNTLSLQMSSLKSEDTAMYFCVRHGDYYRYFYAMDYWGQGSSVTVSS VL: DIVMTQSHKFMSTSVGDRVSITCKASQDVGTAVAWSQQKPGQSPKLLIYWASTRHTGVPDRFTGSGSGTDFTLTISNVQSEDLADYFCQQFVTYPYTFGGGTKLEIK
8 | 14800 | 0.71 | 31300 | 0.17 | 20500 |  |  |  |  | F4.15.9 (antibody, human IgG1, V domains shown, human-murine chimeric antibody, human IgG1) VH: QVQLQQSGPELVKPGASVKISCKASGYAFSSSWMNWLKQRPGQGLEWIGRIYPGDGDTNYNGKFKGKATLTADESSSTAYMQLSSLTSVDSAVYFCARGITTIITIAWFASWGQGTLVTVSA VL: QIVLSQSPTILSASPGEKVTMTCRASSSVSYMHWYQQKPGSSPKPWIYATSNLASGVPPRFSGSGSGTSYSLTISRVGAEDAATYYCQQWSSDPWTFGGGTKLEIK
9 | 4080 | 0.51 | 27100 | 0.48 | 51800 |  |  |  |  | F4.125.12 (antibody, human IgG1, V domains shown, human-murine chimeric antibody, human IgG1) VH: EVKLVESGGGLVQPGGSLKLSCAASGFTFSTYTMSWVRQTPEKRLEWVAFISSGGGHINYPDTVKGRFTISRDNAKNTLYLQMSSLKSEDTAMYYCARHSYWFFDVWGAGTTVTVSS VL: DVQITQSPSYLAASPGETITINCRASKNIDTYLAWYQEKPGKTNKLLIYSGSTLQSGIPSRFRGGGSGTDFTLTICSLEPEDFAMYYCQQHNEYPLTFGAGTKLELK
10 | 531 | 0.17 | 28600 | ~0.17 | 48300 |  |  |  |  | F6.5.20 (antibody, human IgG1, V domains shown, human-murine chimeric antibody, human IgG1) VH: QVQLQQPGAELVKPGASVKLSCKASGYTFTSYWMQWVKQRPGQGLEWIGEIDPSDSYTNYNQKFKGKASLTVDTSSSTAYMQLSSLTSEDSAVYYCARWGLLRNYYVMDYWGQGTSVTVSS VL: EIVLTQSPTTMAASPGEKITITCSASSSISSNYLHWYQQKPGFSPKLLIYRTSNLASGVPARFSGSGSGTSYSLTIGTMEAEDVATYYCQQGSSIPRMLTFGAGTKLELK
